Source: patent US20240209076A1 (KODIAK SCIENCES, published 2024)
Changes are numbered by the printed parent chain.

B1: anti-IL-6 Fab, heavy chain T28Y (Fab, V domains shown)
VH: EVQLVESGGGLVQPGGSLRLSCAASGFYFSPFAMSWVRQAPGKGLEWVAKISPGGSWTYYSDTVTGRFTFSLDTSKSTAYLQMNSLRAEDTAVYYCARQLWGYYALDIWGQGTLVTVSS
VL: DIQLTQSPSSLSASVGDRVTITCSASISVSYMYWYQQKPGKAPKLLIYDMSNLASGVPSRFSGSGSGTDFTLTISSLQPEDFATYYCMQWSGYPYTFGQGTKVEIK
notes: see m39
B2: anti-IL-6 Fab, heavy chain T58K (Fab, V domains shown)
VH: B1 VH with Y28T, T58K
VL: B1 VL
notes: see m39
B3: anti-IL-6 Fab, heavy chain T58R (Fab, V domains shown)
VH: B1 VH with Y28T, T58R
VL: B1 VL
notes: see m39
B4: anti-IL-6 Fab, heavy chain T58V (Fab, V domains shown)
VH: B1 VH with Y28T, T58V
VL: B1 VL
notes: see m39
B5: anti-IL-6 Fab, heavy chain T63D (Fab, V domains shown)
VH: B1 VH with Y28T, T63D
VL: B1 VL
notes: see m39
B6: anti-IL-6 Fab, heavy chain T63E (Fab, V domains shown)
VH: B1 VH with Y28T, T63E
VL: B1 VL
notes: see m39
B7: anti-IL-6 Fab, heavy chain T63G (Fab, V domains shown)
VH: B1 VH with Y28T, T63G
VL: B1 VL
notes: see m39
B8: anti-IL-6 Fab, heavy chain T63K (Fab, V domains shown)
VH: B1 VH with Y28T, T63K
VL: B1 VL
notes: see m39
B9: anti-IL-6 Fab, heavy chain T63Q (Fab, V domains shown)
VH: B1 VH with Y28T, T63Q
VL: B1 VL
notes: see m39
B10: anti-IL-6 Fab, heavy chain T65A (Fab, V domains shown)
VH: B1 VH with Y28T, T65A
VL: B1 VL
notes: see m39
B11: anti-IL-6 Fab, heavy chain T65D (Fab, V domains shown)
VH: B1 VH with Y28T, T65D
VL: B1 VL
notes: see m39
B12: anti-IL-6 Fab, heavy chain T65G (Fab, V domains shown)
VH: B1 VH with Y28T, T65G
VL: B1 VL
notes: see m39
B13: anti-IL-6 Fab, heavy chain T65I (Fab, V domains shown)
VH: B1 VH with Y28T, T65I
VL: B1 VL
notes: see m39
B14: anti-IL-6 Fab, heavy chain T65L (Fab, V domains shown)
VH: B1 VH with Y28T, T65L
VL: B1 VL
notes: see m39
B15: anti-IL-6 Fab, heavy chain T65Y (Fab, V domains shown)
VH: B1 VH with Y28T, T65Y
VL: B1 VL
notes: see m39
B16: anti-IL-6 Fab, heavy chain V48L (Fab, V domains shown)
VH: B1 VH with Y28T, V48L
VL: B1 VL
notes: see m39
B17: anti-IL-6 Fab, heavy chain V48Q (Fab, V domains shown)
VH: B1 VH with Y28T, V48Q
VL: B1 VL
notes: see m39
B18: anti-IL-6 Fab, heavy chain V64A (Fab, V domains shown)
VH: B1 VH with Y28T, V64A
VL: B1 VL
notes: see m39
B19: anti-IL-6 Fab, heavy chain V64F (Fab, V domains shown)
VH: B1 VH with Y28T, V64F
VL: B1 VL
notes: see m39
B20: anti-IL-6 Fab, heavy chain W57F (Fab, V domains shown)
VH: B1 VH with Y28T, W57F
VL: B1 VL
notes: see m39
B21: anti-IL-6 Fab, light chain A25S (Fab, V domains shown)
VH: B1 VH with Y28T
VL: B1 VL with A25S
notes: see m39
B22: anti-IL-6 Fab, light chain A25T (Fab, V domains shown)
VH: B1 VH with Y28T
VL: B1 VL with A25T
notes: see m39
B23: anti-IL-6 Fab, light chain A54G (Fab, V domains shown)
VH: B1 VH with Y28T
VL: B1 VL with A54G
notes: see m39
B24: anti-IL-6 Fab, light chain A54L (Fab, V domains shown)
VH: B1 VH with Y28T
VL: B1 VL with A54L
notes: see m39
B25: anti-IL-6 Fab, light chain A54Y (Fab, V domains shown)
VH: B1 VH with Y28T
VL: B1 VL with A54Y
notes: see m39
B26: anti-IL-6 Fab, light chain D49E (Fab, V domains shown)
VH: B1 VH with Y28T
VL: B1 VL with D49E
notes: see m39
B27: anti-IL-6 Fab, light chain I27F (Fab, V domains shown)
VH: B1 VH with Y28T
VL: B1 VL with I27F
notes: see m39
B28: anti-IL-6 Fab, light chain I27L (Fab, V domains shown)
VH: B1 VH with Y28T
VL: B1 VL with I27L
notes: see m39
B29: anti-IL-6 Fab, light chain I27W (Fab, V domains shown)
VH: B1 VH with Y28T
VL: B1 VL with I27W
notes: see m39
B30: anti-IL-6 Fab, light chain I47V (Fab, V domains shown)
VH: B1 VH with Y28T
VL: B1 VL with I47V
notes: see m39
B31: anti-IL-6 Fab, light chain L46V (Fab, V domains shown)
VH: B1 VH with Y28T
VL: B1 VL with L46V
notes: see m39
B32: anti-IL-6 Fab, light chain L53H (Fab, V domains shown)
VH: B1 VH with Y28T
VL: B1 VL with L53H
notes: see m39
B33: anti-IL-6 Fab, light chain L53R (Fab, V domains shown)
VH: B1 VH with Y28T
VL: B1 VL with L53R
notes: see m39
B34: anti-IL-6 Fab, light chain L53W (Fab, V domains shown)
VH: B1 VH with Y28T
VL: B1 VL with L53W
notes: see m39
B35: anti-IL-6 Fab, light chain M32L (Fab, V domains shown)
VH: B1 VH with Y28T
VL: B1 VL with M32L
notes: see m39
B36: anti-IL-6 Fab, light chain M32V (Fab, V domains shown)
VH: B1 VH with Y28T
VL: B1 VL with M32V
notes: see m39
B37: anti-IL-6 Fab, light chain M50D (Fab, V domains shown)
VH: B1 VH with Y28T
VL: B1 VL with M50D
notes: see m39
B38: anti-IL-6 Fab, light chain M50E (Fab, V domains shown)
VH: B1 VH with Y28T
VL: B1 VL with M50E
notes: see m39
B39: anti-IL-6 Fab, light chain M88A (Fab, V domains shown)
VH: B1 VH with Y28T
VL: B1 VL with M88A
notes: see m39
B40: anti-IL-6 Fab, light chain M88V (Fab, V domains shown)
VH: B1 VH with Y28T
VL: B1 VL with M88V
notes: see m39
B41: anti-IL-6 Fab, light chain N52S (Fab, V domains shown)
VH: B1 VH with Y28T
VL: B1 VL with N52S
notes: see m39
B42: anti-IL-6 Fab, light chain Q89A (Fab, V domains shown)
VH: B1 VH with Y28T
VL: B1 VL with Q89A
notes: see m39
B43: anti-IL-6 Fab, light chain Q89S (Fab, V domains shown)
VH: B1 VH with Y28T
VL: B1 VL with Q89S
notes: see m39
B44: anti-IL-6 Fab, light chain S24I (Fab, V domains shown)
VH: B1 VH with Y28T
VL: B1 VL with S24I
notes: see m39
B45: anti-IL-6 Fab, light chain S24K (Fab, V domains shown)
VH: B1 VH with Y28T
VL: B1 VL with S24K
notes: see m39
B46: anti-IL-6 Fab, light chain S24P (Fab, V domains shown)
VH: B1 VH with Y28T
VL: B1 VL with S24P
notes: see m39
B47: anti-IL-6 Fab, light chain S24V (Fab, V domains shown)
VH: B1 VH with Y28T
VL: B1 VL with S24V
notes: see m39

biological target: recombinant human IL-6 (human, UniProt P05231 30-212); test: SPR, IL-6 on CM5 chip, Fab lysate, 25 C
Sequence (P05231 30-212 limits assumed): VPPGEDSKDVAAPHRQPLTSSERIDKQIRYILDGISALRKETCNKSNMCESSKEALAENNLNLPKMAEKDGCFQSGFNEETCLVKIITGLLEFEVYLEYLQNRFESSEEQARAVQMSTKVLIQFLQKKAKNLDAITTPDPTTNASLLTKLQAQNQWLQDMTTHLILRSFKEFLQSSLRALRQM
Protocol: Three ranges of antigen density (100-150 RU, 300-400 RU, 400-600 RU) were obtained by using variable flow times for each chip channel, later blocked with ethanolamine. Supernatants of the 96-well filtered culture lysates were injected at 50 μL/min for 120 seconds. Fitting of dissociation curves (300 seconds) to single exponential decay curve was used for the determination of dissociation rates (koff). Chip surfaces were regenerated with 10 mM Glycine pH 1.7 solution injected at 50 μL/min during 60 seconds after every cycle of sample binding and dissociation.

Binder | koff [s⁻¹]
B1 | 0.0039
B2 | 0.00492
B3 | 0.00425
B4 | 0.0562
B5 | 0.00603
B6 | 5.53e-05
B7 | 0.0539
B8 | 0.00611
B9 | 0.0057
B10 | 0.00615
B11 | 0.00614
B12 | 0.0057
B13 | 0.00615
B14 | 0.00592
B15 | 0.00574
B16 | 0.00517
B17 | 0.0034
B18 | 0.00643
B19 | 0.00684
B20 | 0.00615
B21 | 0.0048
B22 | 0.00479
B23 | 0.00498
B24 | 0.00489

Binder | koff [s⁻¹]
B25 | 0.00525
B26 | 0.00619
B27 | 0.00594
B28 | 0.00593
B29 | 0.00569
B30 | 0.00493
B31 | 0.00503
B32 | 0.00498
B33 | 0.005
B34 | 0.00501
B35 | 0.00492
B36 | 0.00455
B37 | 0.00458
B38 | 0.00476
B39 | 0.00479
B40 | 0.00495
B41 | 0.00555
B42 | 0.00585
B43 | 0.00601
B44 | 0.00412
B45 | 0.00416
B46 | 0.00397
B47 | 0.00416
